# Reference: patent US5985836A, “Alpha-1 proteinase inhibitor binding peptides” (Bayer Corporation, priority 1998, dated 1999)
# Ends that are not written are not given here.
# How the values were obtained:
# Immunoglobulin G (IgG) = experiment: Purification from Effluent II+III, IgG mass balance; assay type: binding, human; details: 1 ml Eff. II+III, 4° C.
# Outline: (§1)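 Peptide-ligand columns were loaded with 1 ml Cohn Effluent II+III (20% v/v ethanol, 20-25 mg/ml hSA, ~1 mg/ml A1PI, other plasma proteins at 0.1-1 mg/ml) using a 10 min residence time at 4° C. Step elutions at 865 μl/min used 1M NaCl, 3M NaCl, then 2% acetic acid, and protein mass balances were tracked across fractions.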
# A1PI [1] = biological target: T1, A1PI (Homo sapiens, UniProt P01009); experiment: Purification of A1PI from Effluent II+III on peptide column, A1PI mass balance; assay type: binding; details: A1PI, 1 ml Eff. II+III, 4° C.
# T1 construct: Human plasma is currently the only approved source of therapeutic AlPI
# Outline: as §1
# [2] = biological target: T2, apolipoprotein alpha-1 (Apo A-1) (Homo sapiens, UniProt P02647); experiment: Purification from Effluent II+III, Apo A-1 mass balance; assay type: binding; details: 1 ml Eff. II+III, 4° C.
# T2 construct: Eff; II+III is a process intermediate in the Cohn plasma fractionation process; tissue Bayer Corporation (Clayton, N.C.); host or cells: plasma fraction: Cohn Effluent II+III
# Outline: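 Feed: 1 ml Eff. II+III (20% EtOH, 20-25 mg/ml hSA, ~1 mg/ml A1PI). 10 min residence, then 865 μl/min; steps 1M NaCl / 3M NaCl / 2% acetic acid; 4° C. Mass balance per fraction.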
# A1PI [3] = biological target: T1, A1PI; experiment: A1PI purification from 5 mg hSA + 1 mg A1PI on peptide column, A1PI mass balance; assay type: binding; details: A1PI, 5 mg hSA + 1 mg A1PI; for Mass Protein per Eluate Fraction, 1M NaCl / Mass Protein per Eluate Fraction, 2% Ac. Acid / Mass Protein per Eluate Fraction, Flow / Mass Protein per Eluate Fraction, 2% Acetic Acid: * Below detection limit
# Outline: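 Mass balance by immunonephelometry of fractions from step elutions (1M NaCl, 3M NaCl, 2% acetic acid, neutralised with Tris) at 865 μl/min. Sample was a mixture of 1 mg A1PI and 5 mg hSA held 10 min on peptide-derivatised Toyopearl columns (0.1 mmole/g) at 4 °C or 20 °C.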
# Immunoglobulin A (IgA) = experiment: Purification from Effluent II+III, IgA mass balance; assay type: binding, human; details: 1 ml Eff. II+III, 4° C.
# Outline: as §1
# A1PI [4] = biological target: T1, A1PI; experiment: Capture and elution of active A1PI with 2M urea buffer (elastase inhibition activity assay and immunonephelometry); assay type: binding; details: 4° C.; for Mass A1PI in Urea Eluate (mg), Activity / Mass A1PI in Urea Eluate (mg), Nephelometry: 1 mg A1PI, eluted with 2M urea, pH 6; for Mass A1PI in Urea Eluate (mg), Activity: elastase inhibition activity assay; for Mass A1PI in Urea Eluate (mg), Nephelometry: immunonephelometry; for Specific Activity: mass of A1PI by activity assay relative to immunonephelometry, urea eluate
# A1PI [5] = biological target: T1, A1PI; experiment: A1PI binding on peptide-resin column, injection of 1 mg A1PI in equilibration buffer; details: for Percent AlPI Eluted by Fraction, 1M NaCl / Percent AlPI Eluted by Fraction, 2% Acetic Acid / Percent AlPI Eluted by Fraction, Flowthrough: sequence order, 1 mg AlPI
# Outline: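 Percent of total eluted A1PI per fraction (flowthrough, NaCl steps, 2% acetic acid) determined by A280 integration or immunonephelometry. Columns of peptide-derivatized A-Totda-Toyopearl resin (0.1 mmole/g) received 1 mg A1PI at 4 °C or 20 °C, flow 865 or 523 μl/min.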
# [6] = * as in Tables 4, 5 (below detection limit)
# [7] = 4° C., relative to total eluted
# [8] = 20° C., relative to total eluted
# [9] = 1 mg A1PI in equilibration buffer, 4° C.
# [10] = 1 mg A1PI in equilibration buffer, 20° C.
# [11] = Table 19, 4° C., relative to total loaded
# [12] = Table 19, 20° C., relative to total loaded
# T2 sequence (P02647 19-267): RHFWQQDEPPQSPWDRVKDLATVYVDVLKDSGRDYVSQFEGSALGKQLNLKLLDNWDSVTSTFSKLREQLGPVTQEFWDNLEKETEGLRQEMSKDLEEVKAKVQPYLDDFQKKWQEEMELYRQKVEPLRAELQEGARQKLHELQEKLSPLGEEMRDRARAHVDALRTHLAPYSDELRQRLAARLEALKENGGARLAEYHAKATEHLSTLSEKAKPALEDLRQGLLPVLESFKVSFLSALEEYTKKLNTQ
# T1 sequence (P01009 25-418): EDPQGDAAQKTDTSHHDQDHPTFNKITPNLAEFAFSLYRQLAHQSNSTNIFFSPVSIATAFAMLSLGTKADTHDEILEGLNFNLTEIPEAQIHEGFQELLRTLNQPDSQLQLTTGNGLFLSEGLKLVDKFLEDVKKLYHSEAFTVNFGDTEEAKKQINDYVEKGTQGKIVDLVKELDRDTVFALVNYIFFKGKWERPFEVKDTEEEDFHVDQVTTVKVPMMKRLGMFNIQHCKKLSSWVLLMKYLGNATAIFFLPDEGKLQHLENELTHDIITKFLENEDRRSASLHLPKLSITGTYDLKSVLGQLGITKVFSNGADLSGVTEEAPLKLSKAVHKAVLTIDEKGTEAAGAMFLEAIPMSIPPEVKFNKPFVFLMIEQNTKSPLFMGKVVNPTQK
substance,measurement,setting,value
RAFWYI,"Percent Eluted by Fraction, 1M NaCl",Immunoglobulin G (IgG),9%
same,"Percent Eluted by Fraction, 2% Acetic Acid",Immunoglobulin G (IgG),0%
same,"Percent Eluted by Fraction, 3M NaCl",Immunoglobulin G (IgG),0%
same,"Percent Eluted by Fraction, Flow",Immunoglobulin G (IgG),91%
same,"Mass Protein per Eluate Fraction, 1M NaCl",Immunoglobulin G (IgG); [6],0.02 mg
same,"Mass Protein per Eluate Fraction, Flow",Immunoglobulin G (IgG); [6],0.24 mg
same,"Percent Eluted by Fraction, 1M NaCl",A1PI [1],4%
same,"Percent Eluted by Fraction, 2% Acetic Acid",A1PI [1],80%
same,"Percent Eluted by Fraction, 3M NaCl",A1PI [1],0%
same,"Percent Eluted by Fraction, Flow",A1PI [1],17%
same,"Mass Protein per Eluate Fraction, 1M NaCl",A1PI [1]; [6],0.04 mg
same,"Mass Protein per Eluate Fraction, 2% Acetic Acid",A1PI [1]; [6],0.87 mg
same,"Mass Protein per Eluate Fraction, Flow",A1PI [1]; [6],0.18 mg
same,"Percent Eluted by Fraction, 1M NaCl",[2],0%
same,"Percent Eluted by Fraction, 2% Acetic Acid",[2],100%
same,"Percent Eluted by Fraction, 3M NaCl",[2],0%
same,"Percent Eluted by Fraction, Flow",[2],0%
same,"Mass Protein per Eluate Fraction, 2% Acetic Acid",[2]; [6],0.29 mg
same,"Mass Protein per Eluate Fraction, 1M NaCl",A1PI [3]; 4° C.,0.19 mg
same,"Mass Protein per Eluate Fraction, 2% Ac. Acid",A1PI [3]; 4° C.,0.45 mg
same,"Mass Protein per Eluate Fraction, Flow",A1PI [3]; 4° C.,0.26 mg
same,"Percent Eluted by Fraction, 1M NaCl",A1PI [3]; [7],21%
same,"Percent Eluted by Fraction, 2% Ac. Acid",A1PI [3]; [7],50%
same,"Percent Eluted by Fraction, 3M NaCl",A1PI [3]; [7],0%
same,"Percent Eluted by Fraction, Flow",A1PI [3]; [7],29%
same,"Mass Protein per Eluate Fraction, 1M NaCl",A1PI [3]; 20° C.,0.14 mg
same,"Mass Protein per Eluate Fraction, 2% Ac. Acid",A1PI [3]; 20° C.,0.54 mg
same,"Mass Protein per Eluate Fraction, Flow",A1PI [3]; 20° C.,0.09 mg
same,"Percent Eluted by Fraction, 1M NaCl",A1PI [3]; [8],19%
same,"Percent Eluted by Fraction, 2% Ac. Acid",A1PI [3]; [8],70%
same,"Percent Eluted by Fraction, 3M NaCl",A1PI [3]; [8],0%
same,"Percent Eluted by Fraction, Flow",A1PI [3]; [8],11%
same,"Percent Eluted by Fraction, 1M NaCl",Immunoglobulin A (IgA),36%
same,"Percent Eluted by Fraction, 2% Acetic Acid",Immunoglobulin A (IgA),29%
same,"Percent Eluted by Fraction, 3M NaCl",Immunoglobulin A (IgA),0%
same,"Percent Eluted by Fraction, Flow",Immunoglobulin A (IgA),35%
same,"Mass Protein per Eluate Fraction, 1M NaCl",Immunoglobulin A (IgA); [6],0.12 mg
same,"Mass Protein per Eluate Fraction, 2% Acetic Acid",Immunoglobulin A (IgA); [6],0.10 mg
same,"Mass Protein per Eluate Fraction, Flow",Immunoglobulin A (IgA); [6],0.12 mg
same,"Mass A1PI in Urea Eluate (mg), Activity",A1PI [4],0.62 mg
same,"Mass A1PI in Urea Eluate (mg), Nephelometry",A1PI [4],0.71 mg
same,Specific Activity,A1PI [4],0.87 mg/mg
same,"Percent A1PI Eluted by Fraction Based on Absorbance at 280 nm, 1M NaCl",A1PI [5]; [9],55%
same,"Percent A1PI Eluted by Fraction Based on Absorbance at 280 nm, 2% Acetic Acid",A1PI [5]; [9],45%
same,"Percent A1PI Eluted by Fraction Based on Absorbance at 280 nm, Flowthrough",A1PI [5]; [9],0%
same,"Percent A1PI Eluted by Fraction, 1M NaCl",A1PI [5]; [10],72%
same,"Percent A1PI Eluted by Fraction, 2% Acetic Acid",A1PI [5]; [10],28%
same,"Percent A1PI Eluted by Fraction, Flowthrough",A1PI [5]; [10],0%
RVLFIH: reversed sequence of VIFLVR with C-terminal His,"Mass Protein per Eluate Fraction, 1M NaCl","A1PI [3]; Table 19, 4° C.",0.14 mg
same,"Mass Protein per Eluate Fraction, 2% Acetic Acid","A1PI [3]; Table 19, 4° C.",0.43 mg
same,"Mass Protein per Eluate Fraction, Flow","A1PI [3]; Table 19, 4° C.",0.31 mg
same,"Percent Eluted by Fraction, 1M NaCl",A1PI [3]; [11],16%
same,"Percent Eluted by Fraction, 2% Acetic Acid",A1PI [3]; [11],49%
same,"Percent Eluted by Fraction, 3M NaCl",A1PI [3]; [11],0%
same,"Percent Eluted by Fraction, Flow",A1PI [3]; [11],35%
same,"Mass Protein per Eluate Fraction, 1M NaCl","A1PI [3]; Table 19, 20° C.",0.00 mg
same,"Mass Protein per Eluate Fraction, 2% Acetic Acid","A1PI [3]; Table 19, 20° C.",0.65 mg
same,"Mass Protein per Eluate Fraction, Flow","A1PI [3]; Table 19, 20° C.",0.09 mg
same,"Percent Eluted by Fraction, 1M NaCl",A1PI [3]; [12],0%
same,"Percent Eluted by Fraction, 2% Acetic Acid",A1PI [3]; [12],88%
same,"Percent Eluted by Fraction, 3M NaCl",A1PI [3]; [12],0%
same,"Percent Eluted by Fraction, Flow",A1PI [3]; [12],12%
same,"Mass A1PI in Urea Eluate (mg), Activity",A1PI [4],0.56 mg
same,"Mass A1PI in Urea Eluate (mg), Nephelometry",A1PI [4],0.71 mg
same,Specific Activity,A1PI [4],0.79 mg/mg
same,"Percent AlPI Eluted by Fraction, 1M NaCl",A1PI [5]; 4° C.,29%
same,"Percent AlPI Eluted by Fraction, 2% Acetic Acid",A1PI [5]; 4° C.,71%
same,"Percent AlPI Eluted by Fraction, Flowthrough",A1PI [5]; 4° C.,0%
same,"Percent AlPI Eluted by Fraction, 1M NaCl",A1PI [5]; 20° C.,3%
same,"Percent AlPI Eluted by Fraction, 2% Acetic Acid",A1PI [5]; 20° C.,97%
same,"Percent AlPI Eluted by Fraction, Flowthrough",A1PI [5]; 20° C.,0%
